Results from CN115850461A (INST MICROBIOLOGY CAS, dated 2023).

Legend:
Experiment in all cases: cell-based or functional assay
[1] = biological target: SARS-CoV-2 Omicron BA.2.75 假病毒 S蛋白 (SARS-CoV-2 (Omicron BA.2.75))
[2] = biological target: SARS-CoV-2 Delta 假病毒 S蛋白 (SARS-CoV-2 (Delta))
[3] = biological target: SARS-CoV-2 Omicron BA.1.1 假病毒 S蛋白 (SARS-CoV-2 (Omicron BA.1.1))
[4] = biological target: SARS-CoV-2 Alpha 假病毒 S蛋白 (SARS-CoV-2 (Alpha))
[5] = biological target: SARS-CoV-2 Omicron BA.4/5 假病毒 S蛋白 (SARS-CoV-2 (Omicron BA.4/5))
[6] = biological target: SARS-CoV-2 Omicron BA.2 假病毒 S蛋白 (SARS-CoV-2 (Omicron BA.2))
[7] = biological target: SARS-CoV-2 Omicron BA.1 假病毒 S蛋白 (SARS-CoV-2 (Omicron BA.1))
[8] = biological target: SARS-CoV-2 Beta 假病毒 S蛋白 (SARS-CoV-2 (Beta))

B1: 沙贝病毒广谱人源中和抗体74 (antibody, V domains shown)
VH: QVQLVQSGAQLKKPGESLKISCKGSGYNFSRYWIAWVRHMPGKGLEVMGIIYPDDSDTRYSPSVRGQVTISADKSTSIVYLQWSSLKASDTGIYYCARFGAGMTGMPRYFDTTRWFDPWGQGTQVTVSS
VL: QSVLTQPPSVSGAPGQRVTISCLGGSSNIGAGYDVHWYQHLPGAAPKLLISGNSNRPSGVPARFSGSKSGTSASLAITGLQAEDEADYYCQSYDNDLSQVFGGGTKLTVLG
IC50, 假病毒中和 [1]: 1.7 µg/mL | IC50, 假病毒中和 [2]: 1.7 µg/mL | IC50, 假病毒中和 [3]: 0.2 µg/mL | IC50, 假病毒中和 [4]: 0.76 µg/mL | IC50, 假病毒中和 [5]: 2.81 µg/mL | IC50, 假病毒中和 [6]: 3.49 µg/mL | IC50, 假病毒中和 [7]: 0.91 µg/mL | IC50, 假病毒中和 [8]: 1.62 µg/mL
